As a reminder, the Kd is the concentration at which binding is half-saturated. In general, koff refers to the rate constant with which the complex falls apart. By kon is commonly meant the second-order rate constant of association. The EC50 is the concentration needed to bring the measured effect to its halfway point. Low readings indicate higher potency in that assay, high ones lower potency in that assay.

The values that follow come from patent US20220220215A1 (CRESCENDO BIOLOGICS, published 2022).

For assay [1], the target named is human CD137 expressed on cells (Jurkat human CD137 NF-kB luciferase reporter cells; human CD8+ T cells) (human, UniProt Q07011 24-255). Description: cell-based or functional assay.
The target in assay [2] is T1, recombinant Fc-tagged ectodomain of cynomolgus PD1 (Acro Biosystems PD1-C5254) (cynomolgus macaque, UniProt B0LAJ3 25-170).
T1 construct: Bought protein; also called Cyno PD1; cynomolgus macaque PD1; not shown: Fc tag and any linker to it
Description: SPR, Biacore 8K, single-cycle kinetics; Fc-tagged ectodomain captured on Protein G chip; 1:1 model. As for the experimental part: (§1) Binding of Humabody® VH constructs was measured using a single-cycle kinetics method using the BIAcore 8K instrument with 90 second sample injections with a sample concentration range of low nanomolar to high nanomolar. […] The Protein G sensor surface was regenerated with a 20 second injection of 10 mM Glycine buffer, pH 1.5 (GE Healthcare BR100354). Data were analysed using a 1:1 binding model in Biacore Insight Evaluation software, including Humabody® VH constructs with two PD-1 arms.
(Surface plasmon resonance follows binding to a sensor surface in real time, without labels.)

The target in assay [3] is T2, recombinant Fc-tagged ectodomain of cynomolgus CD137 (R&D S9324-4b) (cynomolgus macaque, UniProt A9YYE7 24-186).
T2 construct: Bought protein; also called Cyno CD137; cynomolgus macaque CD137; not shown: Fc tag and any linker to it
The assay is described as above. As for the experimental part:
as §1

Assay [4] addresses T3, recombinant Fc-tagged ectodomain of human PD1 (Acro Biosystems PD1-H5257) (human, UniProt Q15116 25-170).
T3 construct: Bought protein; not shown: Fc tag
The assay is described as above. The procedure: as §1

Assay [5] addresses T4, recombinant Fc-tagged ectodomain of human CD137 (Acro Biosystems 41B-H5258) (human, UniProt Q07011 24-186).
T4 construct: Bought protein; not shown: Fc tag
Described as above. The procedure:
as §1

The target in assay [6] is T5, biotinylated human CD137-His (human, UniProt Q07011 24-186, biotinylated).
T5 construct: not shown: His tag
Description: SPR, Biacore 8K, multi-cycle kinetics; biotinylated antigen captured on streptavidin chip; 1:1 model. The procedure:
(§2) Multi cycle kinetics assays were then used to evaluate the kinetics and affinity of the interaction. Experiments were performed at […] in HBS-EP+ assay buffer with a flow rate of 30 μl/minute. A streptavidin chip (Streptavidin (SA), Series S, GE Healthcare BR100531) was used to capture the biotinylated human CD137 or human PD-1 reaching a maximum of 75RU or 200RU respectively. A second flow cell without any captured antigen was used as the reference cell. […] The binding kinetics were followed by flowing these over the chip surface. The contact time for the binding steps was 360 or 180 seconds and the dissociation step was 3600 or 1200 seconds for human CD137 and PD1 respectively. After each run, the sensors were regenerated with glycine pH 1.5 to remove the captured Humabody® VH. The data was fitted to a 1:1 binding model after reference subtraction using the Biacore Evaluation software. Example kinetic and binding affinity data obtained is shown Table 19.

For assay [7], the target named is T6, biotinylated human PD-1-His tagged protein (human, UniProt Q15116 25-170, biotinylated).
T6 construct: not shown: His tag
Described as above. As for the experimental part:
as §2

For assay [8], the target named is T7, human CD137-Fc recombinant protein (Acro Biosystems 41B-H5258) (human, UniProt Q07011 24-186).
T7 construct: Bought protein; The Octet paragraph gives no catalogue number for its human CD137-Fc; also called hCD137-Fc; CD137-Fc tagged protein
Description: BLI (Octet RED384), CD137-Fc on Protein G sensor, 1:1 model. As for the experimental part:
(§3) Binding kinetics of purified monovalent VH molecules were measured on a ForteBio Octet RED 384 instrument. Human and Rhesus CD137-Fc tagged protein was diluted to 5 μg/ml in kinetics buffer (0.05% Tween, 1×PBS) and coupled to Protein G biosensors (ForteBio cat no. 18-5082) via the Fc tag. VH were serially diluted (typically 1:2 dilution series starting with 200 nM, VH at the highest concentration) and binding to the CD137-Fc-coupled Protein G biosensors measured. Binding kinetics were determined from the (blank subtracted) sensor gram trace using 1:1 binding models and ForteBio Octet Data Analysis 9.0 software. Example kinetic and binding affinity data obtained is shown Table 18 (monovalent VH).
In general terms: Biolayer interferometry detects binding as a change in optical thickness at a sensor tip.

Assay [9] addresses T8, Rhesus CD137-Fc tagged protein (rhesus, UniProt H9Z8K9 24-186).
T8 construct: extracellular domain; The Octet paragraph gives no catalogue number; also called rhCD137-Fc
The assay is described as above. As for the experimental part:
as §3

Assay [10] addresses T9, human CD137 expressed on CHO cells (human, UniProt Q07011 18-255).
T9 construct: also called CHO huCD137; CHO human CD137 cells
Description: FMAT/Mirrorball on CHO huCD137 cells. A digest of the protocol:
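His-tagged VH molecules bound to CHO cells expressing human PD-1 or human CD137, with CHO parent cells as control, in PBS pH 7.4, 0.1% BSA, 0.05% sodium azide. Read by FMAT on Mirrorball (ex 488/640 nm); binding taken as FL2 median fluorescence intensity of FL5-gated events.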

B1: TPP-1247 CD137A-6GS-HSA3-6GS-PD138G7(G109D) (bispecific antibody)
chain: EVQLVESGGGLVQPGGSLRLSCAASGFTLSNYWMNWVRQAPGKGLEWVANINQDGSERYYVDSVKGRFTISRDNAKNSLYLQMNSLRAEDTAVYYCARGGEGYGVDHYGLDVSGQGTTVTVSSGGGGSGGGGSGGGGSGGGGSGGGGSGGGGSEVQLLESGGGLVKPGGSLRLSCAASGFTVSSYTMNWVRQAPGKGLEWVSSISSSGRYIYYADSVKGRFTISRDNAKNSLYLQMNSLRAEDTAVYYCARDPRMVGNPHEFDIWGQGTMVTVSSGGGGSGGGGSGGGGSGGGGSGGGGSGGGGSEVQLVESGGGVVRPGGSLRLSCAASGFTFDDYAMSWVRQAPGKGLEWVSGITWNGGSTGYADSVKDRFTISRDNAKNSLYLQMNSLRAEDTALYYCVRDKYSYAWSYDDFDIWGQGTMVTVSS
Take B1: the “Jurkat-CD137/CHO-PD-1 Reporter Assay EC50” value in assay [1] worked out at 0.0583 nM. Further, the Kd in assay [2] worked out at 16.9 nM; in assay [3] it was 0.543 nM; in assay [4], 7.77 nM; in assay [5], 0.295 nM. For the same molecule, the off-rate constant (koff) turned out to be 0.00494 s⁻¹ in assay [2], 0.00017 s⁻¹ in assay [3], 0.00214 s⁻¹ in [4] and 9.85e-05 s⁻¹ in assay [5]. Besides, the kon in assay [2] was 293000 M⁻¹ s⁻¹; in assay [3], 313000 M⁻¹ s⁻¹; in assay [4], 276000 M⁻¹ s⁻¹; in assay [5] it was 334000 M⁻¹ s⁻¹.

B2: TPP-1028: CD137A-6GS-HSA3-6GS-PD138G7(G109D)-His (bispecific antibody)
chain: EVQLVESGGGLVQPGGSLRLSCAASGFTLSNYWMNWVRQAPGKGLEWVANINQDGSERYYVDSVKGRFTISRDNAKNSLYLQMNSLRAEDTAVYYCARGGEGYGVDHYGLDVSGQGTTVTVSSGGGGSGGGGSGGGGSGGGGSGGGGSGGGGSEVQLLESGGGLVKPGGSLRLSCAASGFTVSSYTMNWVRQAPGKGLEWVSSISSSGRYIYYADSVKGRFTISRDNAKNSLYLQMNSLRAEDTAVYYCARDPRMVGNPHEFDIWGQGTMVTVSSGGGGSGGGGSGGGGSGGGGSGGGGSGGGGSEVQLVESGGGVVRPGGSLRLSCAASGFTFDDYAMSWVRQAPGKGLEWVSGITWNGGSTGYADSVKDRFTISRDNAKNSLYLQMNSLRAEDTALYYCVRDKYSYAWSYDDFDIWGQGTMVTVSSAAAHHHHHH
Consider B2, for which, in [6], binding was characterised by a dissociation constant (Kd) of 0.0281 nM, the koff was found to be 1.9e-05 s⁻¹ and the association rate constant (kon) is 674000 M⁻¹ s⁻¹. In assay [7], the affinity, expressed as Kd, was 5.83 nM; the off-rate (koff) is 0.00235 s⁻¹; the kon is 403000 M⁻¹ s⁻¹. The “Jurkat-CD137/CHO-PD-1 Reporter Assay EC50” value in [1] came out at 0.312 nM.

B3: TPP-1245 CD137A-6GS-PDA2-6GS-HSA2 (bispecific antibody)
chain: EVQLVESGGGLVQPGGSLRLSCAASGFTLSNYWMNWVRQAPGKGLEWVANINQDGSERYYVDSVKGRFTISRDNAKNSLYLQMNSLRAEDTAVYYCARGGEGYGVDHYGLDVSGQGTTVTVSSGGGGSGGGGSGGGGSGGGGSGGGGSGGGGSEVQLVESGGGVVRPGGSLRLSCAASGFTFDDYAMSWVRQAPGKGLEWVSGITWNAGSTGYADSVKGRFTISRDNAKNSLYLQMNSLRAEDTALYYCVRDKYSYAWSYDDFDIWGQGTMVTVSSGGGGSGGGGSGGGGSGGGGSGGGGSGGGGSEVQLVESGGGLVKPGGSLRLSCAASGFTFSNYNMNWVRQAPGKGLEWVSSISSAGTHIYYADSVKGRFTISRDNAKNSLYLQMNSLRAEDTAVYYCARDPHSTGWYKDFDYWGQGTLVTVSS
Consider B3, for which the “Jurkat-CD137/CHO-PD-1 Reporter Assay EC50” value in assay [1] worked out at 0.113 nM. For the same molecule, the dissociation constant Kd worked out at 102 nM in [2], 0.728 nM in assay [3], 87.6 nM in assay [4] and 0.471 nM in assay [5]. Besides, the off-rate constant (koff) is 0.0505 s⁻¹ in assay [2], 0.000263 s⁻¹ in assay [3], 0.0762 s⁻¹ in assay [4] and 0.000179 s⁻¹ in [5]. The kon turned out to be 493000 M⁻¹ s⁻¹ in assay [2], 361000 M⁻¹ s⁻¹ in [3], 869000 M⁻¹ s⁻¹ in assay [4] and 381000 M⁻¹ s⁻¹ in assay [5].

B4: 003BB172-E01-1 (VHH)
VHH: EVQLVESGGGLVQPGGSLRLSCAASGFTFSNYGMHWVRQAPGKGLEWVAVISNDGNTKTYADSVKGRFTISRDNSKNMLYLQMTSLRTEDTAVYYCAQDETTTVTASYYFDYWGQGTLVTVSS
notes: Human VH single domain antibody, monovalent
For the molecule B4, in [8], the Kd is 17.8 nM, the koff was 0.00214 s⁻¹ and the association rate constant (kon) was found to be 120000 M⁻¹ s⁻¹. In assay [9], this molecule displayed a dissociation constant Kd of 21.9 nM, an off-rate constant (koff) of 0.00267 s⁻¹ and a kon of 122000 M⁻¹ s⁻¹. The molecule further came in with a concentration giving a half-maximal response (EC50) in [10] of 1.35 nM.

B5: 003BB172-E01-2 (VHH)
VHH: EVQLVESGGGLVQPGGSLRLSCAASGFTFSNYGMHWVRQAPGKRLEWVAVISNDGNTKTYADSVKGRFTISRDNSKNTLYLQMTSLRTEDTAVYYCAQDETTTVTASYYFDYWGQGTLVTVSS
notes: as for B4
In the case of B5, in [8], the Kd was 18.6 nM, the off-rate (koff) was found to be 0.00137 s⁻¹ and the kon stood at 73200 M⁻¹ s⁻¹. In assay [9], this molecule came in with an equilibrium dissociation constant (Kd) of 25.9 nM, a koff of 0.00159 s⁻¹ and an on-rate constant (kon) of 61300 M⁻¹ s⁻¹. Moreover, a half-maximal response in assay [10] (EC50) required 1.74 nM.

B6: TPP-1010: PD138G7(G109D)-6GS-HSA2-6GS-CD137D-His (bispecific antibody)
chain: EVQLVESGGGVVRPGGSLRLSCAASGFTFDDYAMSWVRQAPGKGLEWVSGITWNGGSTGYADSVKDRFTISRDNAKNSLYLQMNSLRAEDTALYYCVRDKYSYAWSYDDFDIWGQGTMVTVSSGGGGSGGGGSGGGGSGGGGSGGGGSGGGGSEVQLVESGGGLVKPGGSLRLSCAASGFTFSNYNMNWVRQAPGKGLEWVSSISSAGTHIYYADSVKGRFTISRDNAKNSLYLQMNSLRAEDTAVYYCARDPHSTGWYKDFDYWGQGTLVTVSSGGGGSGGGGSGGGGSGGGGSGGGGSGGGGSEVQLVESGGGVVQPGGSLRLSCAASGFTFSNYGMHWVRQAPGKGLEWVAVISNDGNTKTYADSVKGRFTISRDNSKNTLYLQMNSLRAEDTAVYYCAQDETTTVTASYYFDYWGQGTLVTVSSAAAHHHHHH
In assay [6], B6 yielded a dissociation constant Kd of 21.1 nM, a koff of 0.00366 s⁻¹ and a kon of 173000 M⁻¹ s⁻¹. Besides, in assay [7], the Kd was 5.5 nM, the koff amounted to 0.00274 s⁻¹ and the kon is 498000 M⁻¹ s⁻¹. Besides, the “Jurkat-CD137/CHO-PD-1 Reporter Assay EC50” value in assay [1] worked out at 2.29 nM.

B7: TPP-1027: CD137A-6GS-HSA2-6GS-PD138G7(G109D)-His (bispecific antibody)
chain: EVQLVESGGGLVQPGGSLRLSCAASGFTLSNYWMNWVRQAPGKGLEWVANINQDGSERYYVDSVKGRFTISRDNAKNSLYLQMNSLRAEDTAVYYCARGGEGYGVDHYGLDVSGQGTTVTVSSGGGGSGGGGSGGGGSGGGGSGGGGSGGGGSEVQLVESGGGLVKPGGSLRLSCAASGFTFSNYNMNWVRQAPGKGLEWVSSISSAGTHIYYADSVKGRFTISRDNAKNSLYLQMNSLRAEDTAVYYCARDPHSTGWYKDFDYWGQGTLVTVSSGGGGSGGGGSGGGGSGGGGSGGGGSGGGGSEVQLVESGGGVVRPGGSLRLSCAASGFTFDDYAMSWVRQAPGKGLEWVSGITWNGGSTGYADSVKDRFTISRDNAKNSLYLQMNSLRAEDTALYYCVRDKYSYAWSYDDFDIWGQGTMVTVSSAAAHHHHHH
Turning to B7, in [6], the dissociation constant (Kd) worked out at 0.023 nM, the koff stood at 2.87e-05 s⁻¹ and the kon is 1.25e+06 M⁻¹ s⁻¹. In addition, in [7], the Kd amounted to 5.95 nM, the koff came out at 0.00246 s⁻¹ and the kon turned out to be 413000 M⁻¹ s⁻¹. In assay [1], the “Jurkat-CD137/CHO-PD-1 Reporter Assay EC50” value was found to be 0.238 nM.
